# Assay results reported in patent US20130251719A1.
# Target: PCV2-ORF2-antigens coated on ELISA plates (porcine circovirus type 2 (PCV2))
# Assay: competitive ELISA on PCV2-ORF2-antigens, competitor HRP-conjugated anti-PCV2 mab; residual signal of the mab
substance,measurement,value
positive control of commercialized testkit (Ingenasa),OD,0.343 OD at 450 nm
